# Experiment: soluble on expression in E. coli; label from the status in PepcDB or PDB records
row,Sequence,soluble on expression in E. coli
1,MGSDKIHHHHHHMTQSHDEPMQTMMWGGNAAFIEGLYESYLQDPSSVGAEWRSYFDGLRGGAQERVHSEVQQRFYELGQHRGPVTVQVTGGASGAQQAAGALVTAYRVYGHISARNNPLKLRGVPTVPELTPEFYGLSEADLSEQVQDSPFSGTLRDVIAQLQDTYCGAIGFEYNYLPANERAWFQERIEKGRGQGRYGLSQDERRRLMQKLNAAEGLELYLKNRYPGVKRFGLEGGESFIPLMDRIIQQAGGRYGVKEVVVGMAHRGRLNTLVNIFGKPSGTLFDEFDGKKKLSDDPDIAGDVKYHMGYSSDVRTPGGPMHLAMAFNPSHLEIVSPVVHGSVRARQDRRGDTERKQVLPITVHGDAAVSGQGVVMETLNFSRLRGFTTGGAIRIVINNQIGFTISDPRDSRSSRYCTDVAKIANAPVMHVNGDDPEAVAFCGDLALAYRQEFGKDVFIDLICFRRNGHNEGDEPRMTQPVMYREIDQHPGTRALYAAQLEKDGVLAAGEGDKLVNDFRDRLDRGETVVEEMENAEQSKLAVDWSGYTNTHWKDDEVATAVPREKLEALGLKLTQVPEGFRVHRTVERTVIKAREAMARGEQPLDWGMGEMLAYASLLDEGFGLRLDGQDSGRGTFVHRHAVLHNQDAVDPLSEEYMALAHLSPEQGRVEVIDSTLSEEAVLAFEYGYSTSEPKALVAWEAQFGDFANGAQAVVDQFLSAGESKWQRLSGLTMLLPHGYEGAGPEHSSARLERYLQLCAQKNMQVVVPSSAAQIFHLLRRQVLRPYRKPLIVMTPKSLLRNKHAMSPLSDLYDGVFHEVIGDAEVQNARRVVLSSGKLHWELTEAREKDKEGYAGTALVRLEQLYPFPAEQVKAELAKHPGAQVVWAQEEPENQGAWLMIWEDLEHCLQPGQTLTHASRPRSASTAVGYTSVHVREQAKVIADALGEPITRQDVDAQVPLTEEASAQG,not soluble
2,MTIADCDPQISFEKEVYFPGDEVKGRAWVSTTKNLKATSVEITFSGKTITAHNGKKIIKDKKCKKGEETYVEMKHEVWTPEDTENTFPSGDYEWNFSFELPKDCPPSFEGKYGFIRYSVLLHIAVPNGKPINVERAVTVSSMVDLNAVNAHEPAKIHVDNVAEYCHCLPCLPTRGNVIYTLQSPKCGYVAGENVIVSGQIENGTSKPMKIITAKLTRRITYREELKAKANAKKKADGADGFKSKLEEQILETKIERCNVPARSSKDFAFSFDIPAVVSTIRSSRLLAVEYFVTVWGDTGTCNRGGVAALNIIVGNVPLFLGSSSLPPRKFVDGEDAQSWTVDMKPVFTYQVPYYGH,not soluble
3,MYSGFTREKSDLRTEDVEITKEPFTLLIMGIEDYATDGQNGRTDSLMFATVNPKTQKISLMSIPRDSRVPIVGKNKEDKINAAHAYGGEEMAIKTVEGFLKVPVDHYVKIDFQGFKGIVDAVGGVTVDVPFDFWERSDVDYYKKIQFKQGQQELNGEEALAYVRMRKQDPNGDYGRAARQRQLLAAVAQKLNSTSTVFKIKDLTSVVGKYIKTDIPISDGLALYKKLSGFDPSTIQTLKLEGEDKKIGGIYYFLPDPNGVEAVRNEIKKELGEKVTTQENSTTKTESTPSSNSNSNEKAKKETNRNQNKTPTDPPPSTNAHAEWIMRNQQLEHHHHHH,soluble
4,MLPNNQWQIPINNGLTHQENMAAHAAVMKLRVHDLQSIISQLSLRKPRPQKSEHQKVVVESLRDPHHARQIYQMVISLIFSSLQASNFPNGNYEMQKRPATTSQVRSHPYVLPSRSGASNHLVNHHYQQQQQQQPQPHNLLHQQMMASHHSHLQQQHHPSTPKKMYADNFEPLPLPFYDVISVLLKPVELHSSDSPTLKQTKQLQFPFLLTAEHISKISYRADVTPLPRYELQLRFFNLTEPVQGPQKDDFPLNCYARVDDSVVQLPNVIPTNKTNAEPKRPSRPVNITSNMNRYKKEHTVAVEWLADKRVWAAGVYFVHRVNSDILFKRLNQNVSRHRSLEVTKQEVIKKLSGGEDDIAMDRLNISLLDPLCKTRMTTPSRCQDCTHLQCFDLLSYLMMNEKKPTWQCPVCSSNCPYDRLIVDDYFLDMLAKVDKNTTEVELKEDGSYDVIKEEAFCISDDDDDDVVPATVNGTASCSSTNGNGLANEAAKKKPADDDIITLSDDDDEELNRGIMNSLNDSFSPGRHTASAELAAQKTPPQQKKKTKDDDIEIITLDDTPPRPVAASANLPMRQMSQQNQMPVGSSPSGMASTQMGMNEGASKTIRDALNKIGEPMINQAPHFQMQNGLIGRNNQMVHMQQHHLQQQQQQQQSPQIMSPSFYAQQQMSNGGAFAYYPPQYPQQQYRQN,not soluble
5,MPKLPRIDFYFDVISPYSYIAFEVFQKLETQWKGVTIRYIPFFLGAVMKESGNRPPAMLPARSIMMMTDLKRTAKFWDIPLTPPPLFMEWIKKYRTTGAMKVLLVLQEQDKELMLRAAREMWVRLWSRSEKIFEDQDFVEVLKAVGVKNPEQIVEKSKDEKYIKILMENTNKGVDLMAYGAPWINVHTEDGSEHSFFGSDRFHLIADLLQQPQPLPDRLFGQKSKL,not soluble
